In general, Kd refers to the free concentration of one partner at which half of the binding sites on the other are occupied at equilibrium, for simple one-to-one binding. Read a low Kd as tighter binding.

6 molecules from paper PMC3892784 (mBio, 2013) can be followed below.

B1: T. maritima RR468 (natural protein, UniProt Q9WYT9 1-122, looked up)
chain: MSKKVLLVDDSAVLRKIVSFNLKKEGYEVIEAENGQIALEKLSEFTPDLIVLDIMMPVMDGFTVLKKLQEKEEWKRIPVIVLTAKGGEEDESLALSLGARKVMRKPFSPSQFIEEVKHLLNE
B2: NtrC1189 (domain or fragment, UniProt Q1DD25 1-450, looked up)
chain: MKPGPRILIVDDDSGVLRALRGLLSDEGFTPVEARSAAEASQLLDAPEGPPAMMLLDLRMPGETGLELLARLPRPFPAPVVVLSGEASPAEAVQALRLGATDFVEKPPSPERLLTAVRNALALGS
B5: FrgC (domain or fragment, UniProt Q9RF09 1-466, looked up)
chain: MNESLRGTVLLVDDDPAVAKVLGALLTQAGLTTHAARDGQEALALLASKPVDVVVSDVRMPGMDGLQVLAEVARGWPDVPVILLTAHGTVPLAVEAMKAGAADFVLKPFDREEILFTVRKALLRAQG

The target in experiment [1] is CrdS6 (Myxococcus xanthus (strain DZ2 genomic DNA)). Nature of the experiment: other fluorescence titration.
Experiment [2] deals with FrgB (Myxococcus xanthus (strain DZ2 genomic DNA)) (UniProt Q9RF10). Nature of the experiment: ITC. In general terms: In ITC the heat of successive injections is recorded.
The target in experiment [3] is CrdS6 (Myxococcus xanthus (strain DZ2 genomic DNA)). Nature of the experiment: ITC.
Experiment [4] has as its target T. maritima HK853 (T. maritima) (UniProt Q9WZV7). The experiment is described as follows: ITC.
A further experiment deals with T1, HK1190 (Myxococcus xanthus (strain DZ2 genomic …, UniProt Q1DD24 1-424)).
T1 sequence (looked up): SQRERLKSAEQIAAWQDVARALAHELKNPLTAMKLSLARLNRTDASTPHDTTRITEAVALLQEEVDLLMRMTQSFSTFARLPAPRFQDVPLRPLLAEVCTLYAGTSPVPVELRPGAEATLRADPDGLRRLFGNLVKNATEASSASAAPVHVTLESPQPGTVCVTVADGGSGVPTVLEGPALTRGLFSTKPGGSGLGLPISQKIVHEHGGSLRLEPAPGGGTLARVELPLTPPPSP
The experiment is described as follows: ITC.

A further experiment concerns the target T2, T. maritima HK853 (T. maritima, UniProt Q9WZV7 232-489).
T2 sequence (looked up): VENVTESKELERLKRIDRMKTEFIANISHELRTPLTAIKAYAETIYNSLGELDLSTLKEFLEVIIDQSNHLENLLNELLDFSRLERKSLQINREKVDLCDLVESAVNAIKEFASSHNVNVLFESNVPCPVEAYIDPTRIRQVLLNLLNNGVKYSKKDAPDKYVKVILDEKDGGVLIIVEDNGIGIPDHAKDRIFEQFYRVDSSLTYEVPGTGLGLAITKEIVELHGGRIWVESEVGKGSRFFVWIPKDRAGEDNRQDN
The experiment is described as follows: ITC.

In a further experiment the target is T3, FrgB (Myxococcus xanthus (strain DZ2 genomic …, UniProt Q9RF10 1-510)).
T3 sequence (looked up): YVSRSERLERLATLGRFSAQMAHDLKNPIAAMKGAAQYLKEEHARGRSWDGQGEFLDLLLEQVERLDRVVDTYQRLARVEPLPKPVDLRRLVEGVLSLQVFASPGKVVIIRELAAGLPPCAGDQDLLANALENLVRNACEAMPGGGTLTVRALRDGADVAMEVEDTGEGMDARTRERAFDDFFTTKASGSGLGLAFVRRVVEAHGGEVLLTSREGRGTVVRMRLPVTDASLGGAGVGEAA
Nature of the experiment: ITC.

Experiment [5] has as its target T4, CrdA (Myxococcus xanthus (strain DZ2 genomic …, UniProt Q84I63 1-498)).
T4 sequence (looked up): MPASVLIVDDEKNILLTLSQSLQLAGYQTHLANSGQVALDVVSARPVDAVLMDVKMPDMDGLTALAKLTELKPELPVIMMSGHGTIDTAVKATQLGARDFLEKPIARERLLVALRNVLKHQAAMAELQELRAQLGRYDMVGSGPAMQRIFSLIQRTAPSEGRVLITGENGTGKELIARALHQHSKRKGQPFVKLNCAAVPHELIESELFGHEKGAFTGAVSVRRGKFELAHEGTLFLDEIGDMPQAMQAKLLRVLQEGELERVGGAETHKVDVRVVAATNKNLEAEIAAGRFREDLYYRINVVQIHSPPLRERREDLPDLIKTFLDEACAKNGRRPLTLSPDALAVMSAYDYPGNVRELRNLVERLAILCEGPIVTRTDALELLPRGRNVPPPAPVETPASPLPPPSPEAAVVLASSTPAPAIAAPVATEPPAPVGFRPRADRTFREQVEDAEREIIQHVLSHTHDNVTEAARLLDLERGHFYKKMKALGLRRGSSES
Nature of the experiment: other fluorescence titration.

The experiment “NtrC1189” concerns the target B2. The experiment is described as follows: ITC.
The experiment “FrgC” has as its target B5. The experiment is described as follows: ITC.
The experiment “T. maritima RR468” has as its target B1. The experiment is described as follows: ITC.
The target in experiment [6] is T4, CrdA. The experiment is described as follows: ITC.

Take “CrdA (from UniProt Q84I63 1-498) (domain or fragment)”: the Kd in experiment [1] was greater than 200 µM; in [2] it was greater than 75 µM; in [3] it was greater than 75 µM; in experiment [4], greater than 75 µM.

On to B1, for which the Kd was greater than 55 µM with HK1190, 1.16 µM in the experiment with T. maritima HK853 and greater than 75 µM with FrgB.

On to B2, for which the Kd with HK1190 was 1.23 µM; in the experiment with T. maritima HK853, greater than 55 µM; with FrgB it was greater than 75 µM.

B3: CrdS (domain or fragment)
chain: RLMASERIAAWQEVARRLAHEIKNPLTPIRMSLETLQAAQEAKHPRFQDMFKESAGVVLEEVDRLRRIVDEFSHFARMPKPQLAPVDLGELAQSVLALYATPPTGIQILPTLQTGVVARVDRDQLTQVLVNLVKNAEEAMASTGGTLRVRVRSTEADAIVEVEDSGPGIPLEHRARIFEPYFTTKDGGTGLGLAIASRILQEHGGKLEVGGEPGHGARFSLVLPRAA
B3: the Kd in the experiment with CrdA [5] was 2.28 ± 0.66 µM; with NtrC1189, greater than 75 µM; with FrgC, greater than 75 µM; in the experiment with T. maritima RR468 it was greater than 75 µM; with CrdA [6], 1.41 µM.

B4: CrdS6 (domain or fragment)
chain: RLMASERIAAWQEVARRLAHEIKNPLTAIRLSLARLQAAQEAKHPRFQDMFKESAGVVLEEVDRLRRIVDEFSHFARMPKPQLAPVDLGELAQSVLALYATPPTGIQILPTLQTGVVARVDRDQLTQVLVNLVKNAEEAMASTGGTLRVRVRSTEADAIVEVEDSGPGIPLEHRARIFEPYFTTKDGGTGLGLAIASRILQEHGGKLEVGGEPGHGARFSLVLPRAA
In the experiment with NtrC1189, B4 gave a Kd of 2.09 µM.

As to B5, the results for the Kd with HK1190, with T. maritima HK853 and with FrgB were greater than 35 µM, greater than 55 µM and 1.23 µM, respectively.
